Results on 6 molecules are retold here after patent publication US20250276082A1 (INNOLAKE BIOPHARMA HANGZHOU, published 2025).

T1: Human B7H3 extracellular domain and mFc fusion protein (B7H3-ECD-mFc) (human, UniProt Q5ZPR3 29-466)
T1 construct: extracellular domain; also called B7H3-mFc; B7H3-mFc Protein; not shown: mouse Fc (mFc)
T1 sequence (looked up): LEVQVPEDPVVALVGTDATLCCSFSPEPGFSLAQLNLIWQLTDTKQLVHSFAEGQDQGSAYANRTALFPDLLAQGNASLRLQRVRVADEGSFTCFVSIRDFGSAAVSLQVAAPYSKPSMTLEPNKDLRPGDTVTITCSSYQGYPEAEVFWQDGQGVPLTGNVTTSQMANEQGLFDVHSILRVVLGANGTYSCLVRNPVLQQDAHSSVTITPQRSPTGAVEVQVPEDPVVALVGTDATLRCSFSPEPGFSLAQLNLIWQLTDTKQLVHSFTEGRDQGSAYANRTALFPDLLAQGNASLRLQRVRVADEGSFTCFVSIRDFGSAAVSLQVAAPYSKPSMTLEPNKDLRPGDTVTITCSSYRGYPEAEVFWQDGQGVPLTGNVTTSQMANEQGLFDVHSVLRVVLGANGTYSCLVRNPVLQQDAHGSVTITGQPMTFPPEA

T2: B7H3 on the cell surface (PC9 cells; 293T-B7H3 cells) (UniProt Q5ZPR3 29-534, limits assumed)
T2 construct: whole, on cells; both carry B7H3 on the surface; also called Cell Surface B7H3; B7H3 protein in PC9 cells
T2 sequence (looked up): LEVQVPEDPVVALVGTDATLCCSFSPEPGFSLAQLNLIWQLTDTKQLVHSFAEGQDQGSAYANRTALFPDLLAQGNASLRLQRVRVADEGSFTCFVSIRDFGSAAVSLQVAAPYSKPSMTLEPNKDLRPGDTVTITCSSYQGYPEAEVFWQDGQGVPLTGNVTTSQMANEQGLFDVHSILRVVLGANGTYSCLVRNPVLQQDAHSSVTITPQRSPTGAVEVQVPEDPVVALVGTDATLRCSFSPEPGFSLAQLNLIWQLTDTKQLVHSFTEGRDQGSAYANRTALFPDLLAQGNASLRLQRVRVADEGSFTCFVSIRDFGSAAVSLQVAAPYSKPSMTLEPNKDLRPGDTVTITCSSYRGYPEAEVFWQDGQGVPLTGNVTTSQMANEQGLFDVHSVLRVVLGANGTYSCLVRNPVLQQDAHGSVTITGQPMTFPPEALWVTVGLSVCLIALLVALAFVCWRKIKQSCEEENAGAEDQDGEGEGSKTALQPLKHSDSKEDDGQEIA

B1: hu7B7 (antibody, IgG1, V domains shown)
VH: EVQLVESGGGLVKPGGSLRLSCAASGFTFSSYAVSWVRQAPGKGLEWVASISGGGIYIYYPDSVKGRFTISRDNAKNSLYLQMNSLRAEDTAVYYCARHGGAGYFDYWGQGTLVTVSS
VL: DSQMTQSPSSLSASVGDRVTITCRGSESVHSYLAWYQQKPGKAPKLLVYNAKTLQSGVPSRFSGSGSGTDFTLTISSLQPEDFATYYCQQHYGSPPWTFGGGTKVEIK
notes: expressed in 293 cells; also called humanized antibody 7B7
B2: hu2A9 (antibody, IgG1, V domains shown)
VH: QVQLVQSGAEVKKPGASVKVSCKTSGYTFTEYIMHWVRQAPGQGLEWIGGINPNSGGTTYNEKFKGRATLTVDKSISTAYMELSRLRSDDTAVYYCARRMPYWYFDVWGQGTMVTVSS
VL: EIVLTQSPATLSLSPGERATLSCSASSSVSYIHWYQQKPGQAPRRWVYDTSKLASGIPARFSGSGSGTDYTLTISSLEPEDFAVYYCQQWVSNPLTFGQGTKLEIK
notes: expressed in 293 cells; also called humanized antibody 2A9; humanized 2A9
B3: hu9C8 (antibody, IgG1, V domains shown)
VH: QVQLVQSGAEVKKPGASVKVSCKASGYTFTEYTIHWVRQAPGQGLEWIGGINPNSGGTTYNLKFKGRATLTVDKSTSTVYMELSSLRSEDTAVYYCARKEGFFTTDYWGQGTLVTVSS
VL: B2 VL with I2T, V29L, V47I, K52N, S55T, V91H, S92Y, L95P, Q99G, L103V
notes: expressed in 293 cells; also called humanized antibody 9C8; humanized 9C8
B4: hu4F11 (antibody, IgG1, V domains shown)
VH: QVQLVQSGAEVKKPGASVKVSCKTSGYTFTEYIMHWVRQAPGQGLEWIGGINPNTGGITYNQKFKDRATLTVDKSISTAYMELSRLRSDDTAVYYCARAGGNFLWYFDVWGQGTMVTVSS
VL: B2 VL with I32M, V47L, V91N
notes: expressed in 293 cells; also called humanized antibody 4F11; humanized 4F11
B5: hu5B6 (antibody, IgG1, V domains shown)
VH: QVQLVQSGAEVKKPGSSVKVSCKASGYTFITYTIHWVRQAPGQGLEWIGYINPTSDYANFNQKFKDRATLTADKSTSTAYMELSSLRSEDTAVYYCARWGTTVFQFYFDYWGQGTLVTVSS
VL: EIVLTQSPATLSLSPGERATLSCRASQSLSYINWYQQKPGKAPKPWIYATSSLQSGVPSRFSGSASGTDYTLTISSLQPEDFATYYCQHWSSDPPTIGGGTKVEIK
notes: expressed in 293 cells; also called humanized antibody 5B6; humanized 5B6
B6: hu15A2 (antibody, IgG1, V domains shown)
VH: QVQLVQSGAEVKKPGASVKVSCKASGYTFTSYDINWVRQATGQGLEWIGWIDPGDGSTKYNEKFKGRATLTANKSISTAYMELSSLRSEDTAVYYCVRRGFDYWGQGTLVTVSS
VL: EIVLTQSPATLSLSPGERATLSCRTSSSVSYLHWFQQKPGQAPRLWIHDTSNLASGFPARFSGSGSGTDYTLTISSLEPEDFAVYYCHQRSSYPWTFGGGTKVEIK
notes: expressed in 293 cells; also called humanized antibody 15A2

Changes are numbered by the printed parent chain.

The first experiment addresses T1, Human B7H3 extracellular domain and mFc …. The experiment can be described thus: ELISA, B7H3-mFc protein (table title), humanized IgG1.
B1 registered an EC50 of 0.00635 mg/L.
B2 registered a 50% effective concentration (EC50) of 0.0175 mg/L. This EC50 is about 2.8-fold higher than that of the molecule before.
Turning to B3, the midpoint of the response, the EC50, lay at 0.0199 mg/L.
Molecule B4 came in with an EC50 of 0.0406 mg/L.
In the case of B5, the midpoint of the response, the EC50, lay at 0.0127 mg/L.
Same read-out and setting: with B6 the figure was 0.00384 mg/L.

The next experiment addresses T2, B7H3 on the cell surface (PC9 cells; …). The experiment can be described thus: FACS, cell surface B7H3 (PC9 cells per FIG. 10).
B1 displayed an EC50 of 0.0113 mg/L.
B2: the EC50 came to 0.14 mg/L.
In turn, B3 displayed an EC50 of 0.079 mg/L.
B4 registered a 50% effective concentration (EC50) of 0.127 mg/L.
Regarding B5, the EC50 is 0.0621 mg/L.
On the same count and under the same terms, under B6 stands 0.0143 mg/L.
